For the experiment, the target named is T1, GH蛋白 (垂体瘤组织中的内源GH) (human, UniProt P01241 27-217).
T1 construct: Endogenous antigen detected by immunohistochemistry in pituitary tumour samples; also called 人GH蛋白
As to the kind of experiment: immunohistochemistry on 9 pituitary tumour samples.

The values below come from CN113845595A (FUZHOU MAIXIN BIOTECHNOLOGY DEV CO LTD, dated 2021).

T1 sequence (P01241 27-217 limits assumed): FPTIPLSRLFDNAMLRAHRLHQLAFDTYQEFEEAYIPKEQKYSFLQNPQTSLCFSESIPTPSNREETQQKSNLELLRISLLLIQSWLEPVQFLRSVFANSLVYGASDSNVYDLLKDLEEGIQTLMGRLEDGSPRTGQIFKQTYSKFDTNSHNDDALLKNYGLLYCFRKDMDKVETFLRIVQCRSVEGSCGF

B1: 抗GH蛋白单克隆抗体(9D5D2A9) (antibody, V domains shown)
VH: QVQLKESGPGLVAPSQSLSITCTVSGFSLTNYGIHWVRQPPGKGLEWLGLIWSGGSTKYNSALMSRLSISRDNSKSQVFLKMNSLQSDDTAMYYCVRDELYAYWGQGTLVTVSA
VL: DIVMTQSHKFMSTSVGDRVSITCKASQDVGPTVAWYQQKPGQSPKLLIYWASTRHTGVPDRFTGSGYGTDFTLTISNVQSEDLADYFCQQYSSYPFTFGSGTKLEIK
notes: also called GH单克隆抗体; CGMCC NO.22315
Take B1: the binding result is listed as “binds”.
